Each sequence was assayed against T1, 6xHis-CerM (Cereibacter sphaeroides WS8N) (UniProt Q3J1N9) (assay: EMSA). Details: 10 mM Tris pH 7.5, 1 mM EDTA, 0.1 M KCl, 0.1 mM DTT, 5% glycerol, 0.10 mg/mL BSA, 20 min room temperature; 50 ng DNA, 50-200 ng CerM; 4% native gel in TAE pH 7.
T1 sequence: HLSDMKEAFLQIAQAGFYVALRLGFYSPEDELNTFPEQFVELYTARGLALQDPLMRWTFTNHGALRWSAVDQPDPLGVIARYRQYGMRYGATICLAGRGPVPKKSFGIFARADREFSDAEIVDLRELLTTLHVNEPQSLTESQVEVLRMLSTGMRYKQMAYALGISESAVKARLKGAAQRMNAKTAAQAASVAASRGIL
For “GCGAATTCCGAGAGGGTTCCACGCTTCATCTTCTCATTTCGCTGGGCAGCCGATTGCGGCGCGAGGAGACCGTGCTGCCGTCCCATTCTCAAGTTGCGCAAAAGGTAAGGCGCTGGAAGGCCCGTCTTTTGAGCATCTGGTCAAAAAAATAAGTTATTACATGGGCTTGATGGGTGATCGGCTCAATCCGCGGACAAACCCTGAGGTTGAGGTGAGAGAGACCCGACTCGCGCCCGTTACCGAAAATGTGCAGATGGGAATTCGC (double strand) [15394 regulatory region (249 bp)]”, the binding was “binds more weakly”. With “CCCGAATATTCGCGACTTGCAAAGTTTCGGCGGCGAATTCGCTGCAAATTGCATTGCAGAATGCAAAAGACCTCAGAGGCGAGTGACGTGTCTCCCGTGCTCCCGAGGGATGATCCACAGCGGCGGACGCCGAACGAACCCAGCTTGTATGAATGGACATATC (double strand) [14710 fragment G (163 bp)]” the binding was “no binding”. With “CCCGAATATTCGCGACTTGCAAAGTTTCGGCGGCGAATTCGCTGCAAATTGCATTGCAGAATGCAAAAGACCTCAGAGGCGAGTGACGTGTCTCCCGTGCTCCCGAGGGATGATCCACAGCGGCGGACGCCGAACGAACCCAGCTTGTATGAATGGACATATCCAAAAAGACAGGTTTGTTT (double strand) [14710 fragment I (182 bp)]” the binding was “binds”. In the case of “CAGCTTGTATGAATGGACATATCCAAAAAGACAGGTTTGTTTCAAGACAAGTTTTTCTGGATGGAATTGGACGTCGGGCGGGGTTTTGGCACACAATATGCTTGTTATCCGGGCAGGGACAGCTGGAAGATTTACGGAGACATTTCATGAAACATCCCGTCGACGCCCAC (double strand) [14710 fragment B (170 bp)]”, the binding is reported as “binds”. In the case of “GACATATCCAAAAAGACAGGTTTGTTTCAAGACAAGTTTTTCTGGATGGAATTGGACGTCGGGCGGGGTTTTGGCACACAATATGCTTGTTATCCGGGCAGGGACAGCTGGAAGATTTACGGAGACATTTCATGAAACATCCCGTCGACGCCCAC (double strand) [14710 fragment H (155 bp)]”, the binding is reported as “binds”. With “GTGGGCGTCGACGGGATGTTTCATGAAATGTCTCCGTAAATCTTCCAGCTGTCCCTGCCCGGATAACAAGCATATTGTGTGCCAAAACCCCGCCCGACGTCCAATTCCATCCAGAAAAACTTGTCTTGA (double strand) [14710 fragment C (129 bp)]” the binding was “no binding”. With “CCCGAATATTCGCGACTTGCAAAGTTTCGGCGGCGAATTCGCTGCAAATTGCATTGCAGAATGCAAAAGACCTCAGAGGCGAGTGACGTGTCTCCCGTGCTCCCGAGGGATGATCCACAGCGGCGGACGCCGAACGAACCCAGCTTGTATGAATGGACATATCCAAAAAGACAGGTTTGTTTCAAGACAAG (double strand) [14710 fragment D (191 bp)]” the binding was “binds”. “CAAAAAGACAGGTTTGTTTCAAGACAAGTTTTTCTGGATGGAATTGGACGTCGGGCGGGGTTTTGGCACACAATATGCTTGTTATCCGGGCAGGGACAGCTGGAAGATTTACGGAGACATTTCATGAAACATCCCGTCGACGCCCAC (double strand) [14710 fragment F (147 bp)]” was tested, and the binding was “no binding”. For “GCGAATTCAAGGTCACGATGATCCAGAAATATCGGCAACTTTAGATTGTATTCAGCTTCGCCTATGCGAGAGTAACTCATGATTAACCATTGGGCATCATTGTAGTTAATACCTAGGGTGGCGATGCGGAGCGCGAGTGATGAGAATACTGCTGGTGGAGGATGATCCGACCACGTCCCGCAGCATCGAATTGATGCTGACTCATGCGAACCTGAACGTCTATTGCACCGATCTCGGCGAGGACGGGATCGATCTGGCCAAGCTCTACGATTACGATCTCATCCTGCTGAGCTCGC (double strand) [ctrA control region (281 bp)]”, the binding was “no binding”.
